We go through 94 variants from the supplement of paper PMC10567573.

B1: ZNF449 (parent)
chain: YRHQRLHTGERPYECTVCKKRFTR
B2: WDFY2 (parent)
chain: FWNFKQMWDSKKIGLRQHHCRKCG
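Also: lentivirally expressed fusions sorted by FACS into six bins by GFP to DsRed ratio, PSI derived from sequencing read proportions per bin multiplied by bin number.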

The variants in the first series derive from B1. The series is described as follows: protein stability index of a GFP-peptide fusion (GPS, HEK-293T) (PSI 1-6); higher = more stable. The note with it: c terminus: a fixed tail appended.
For the variant PRHQRLHTGERPYECTVCKKRFTR [Y1P], the protein stability index was 2.7.

Regarding QRHQRLHTGERPYECTVCKKRFTR [Y1Q], the protein stability index worked out at 2.88. As to CRHQRLHTGERPYECTVCKKRFTR [Y1C], the protein stability index came to 3.93. Still for that read-out and setting: as for DRHQRLHTGERPYECTVCKKRFTR [Y1D], the figure is 2.58; as for FRHQRLHTGERPYECTVCKKRFTR [Y1F], 1.65.

As for ARHQRLHTGERPYECTVCKKRFTR [Y1A], the protein stability index came out at 3.22. For GRHQRLHTGERPYECTVCKKRFTR [Y1G], the protein stability index is 2.21.

Take ERHQRLHTGERPYECTVCKKRFTR [Y1E]: the protein stability index turned out to be 3.16. On the same count and under the same terms, as for IRHQRLHTGERPYECTVCKKRFTR [Y1I], the figure is 2.55; as for MRHQRLHTGERPYECTVCKKRFTR [Y1M], 2.92. Regarding LRHQRLHTGERPYECTVCKKRFTR [Y1L], the protein stability index came to 2.83. For the variant RRHQRLHTGERPYECTVCKKRFTR [Y1R], the protein stability index stood at 3.05. For the variant NRHQRLHTGERPYECTVCKKRFTR [Y1N], the protein stability index worked out at 2.35.

With KRHQRLHTGERPYECTVCKKRFTR [Y1K], the protein stability index was 2.77. For the variant HRHQRLHTGERPYECTVCKKRFTR [Y1H], the protein stability index is 2.98.

The next series covers variants of B2. The description is as above. The note with it: c terminus: a fixed tail appended.
For FWNFKQMWDSKKIGLRQHHCRHCG [K22H], the protein stability index amounted to 1.23. Consider FWNFKQMWDSKKIGLRQHHCRICG [K22I], for which the protein stability index amounted to 4.49. As for FWNFKQMWDSKKIGLRQHHCRGCG [K22G], the protein stability index turned out to be 1.65. As for FWNFKQMWDSKKIGLRQHHCRSCG [K22S], the protein stability index was 2.72. As for FWNFKQMWDSKKIGLRQHHCRACG [K22A], the protein stability index is 1.09. FWNFKQMWDSKKIGLRQHHCRECG [K22E]: the protein stability index worked out at 1.65.

Consider FWNFKQMWDSKKIGLRQHHCRYCG [K22Y], for which the protein stability index amounted to 1.78. For FWNFKQMWDSKKIGLRQHHCRMCG [K22M], the protein stability index came out at 1.8. As for FWNFKQMWDSKKIGLRQHHCRNCG [K22N], the protein stability index was determined as 1.57.

In the case of FWNFKQMWDSKKIGLRQHHCRDCG [K22D], the protein stability index was found to be 1.79. For the variant FWNFKQMWDSKKIGLRQHHCRTCG [K22T], the protein stability index worked out at 2.87.

On to FWNFKQMWDSKKIGLRQHHCRQCG [K22Q], for which the protein stability index was 2.21. FWNFKQMWDSKKIGLRQHHCRLCG [K22L]: the protein stability index came to 1.47. With FWNFKQMWDSKKIGLRQHHCRVCG [K22V], the protein stability index was 1.7.

For FWNFKQMWDSKKIGLRDHHCRKCG [Q17D], the protein stability index stood at 1.9. For the variant FWNFKQMWDSKKIGLRVHHCRKCG [Q17V], the protein stability index stood at 2.13. Still for that read-out and setting: the figure for FWNFKQMWDSKKIGLRAHHCRKCG [Q17A] is 2.32; for FWNFKQMWDSKKIGLRMHHCRKCG [Q17M] it is 1.91.

As for FWNFKQMWDSKKIGLRLHHCRKCG [Q17L], the protein stability index amounted to 1.99. For the variant FWNFKQMWDSKKIGLRSHHCRKCG [Q17S], the protein stability index came out at 1.99.

FWNFKQMWDSKKIGLRCHHCRKCG [Q17C]: the protein stability index was 1.61. On to FWNFKQMWDSKKIGLRNHHCRKCG [Q17N], for which the protein stability index is 1.35. On to FWNFKQMWDSKKIGLRGHHCRKCG [Q17G], for which the protein stability index was 1.49. Same read-out and setting: the figure for FWNFKQMWDSKKIGLRFHHCRKCG [Q17F] is 1.35; for FWNFKQMWDSKKIGLRPHHCRKCG [Q17P] it is 2.52. As to FWNFKQMWDSKKIGLRYHHCRKCG [Q17Y], the protein stability index stood at 2.12. Turning to FWNFKQMWDSKKIGLRKHHCRKCG [Q17K], the protein stability index worked out at 1.38. Turning to FWNFKQMWDSKKIGLRIHHCRKCG [Q17I], the protein stability index stood at 2.84. Same read-out and setting: as for FWNFKQMWDSKKIGLRRHHCRKCG [Q17R], the figure is 2; as for FWNFKQMWDSKKIGLRHHHCRKCG [Q17H], 2.18; as for FWNFKQMWDSKKIGLREHHCRKCG [Q17E], 1.53.

For FWNFKQMWDSKKIGLRTHHCRKCG [Q17T], the protein stability index is 1.2. As to FWNFKQMWDSKKIGLRWHHCRKCG [Q17W], the protein stability index came out at 1.82. On to FWNFKQMWDSKKIGLRQHHCQKCG [R21Q], for which the protein stability index amounted to 2.11.

Regarding FWNFKQMWDSKKIGLRQHHCNKCG [R21N], the protein stability index was 2.46. Turning to FWNFKQMWDSKKIGLRQHHCKKCG [R21K], the protein stability index is 2.01. Same read-out and setting: the figure for FWNFKQMWDSKKIGLRQHHCMKCG [R21M] is 2.21; for FWNFKQMWDSKKIGLRQHHCYKCG [R21Y] it is 1.58; for FWNFKQMWDSKKIGLRQHHCGKCG [R21G] it is 1.85. On the same count and under the same terms, the figure for FWNFKQMWDSKKIGLRQHHCTKCG [R21T] is 1.71; for FWNFKQMWDSKKIGLRQHHCFKCG [R21F] it is 1.76; for FWNFKQMWDSKKIGLRQHHCSKCG [R21S] it is 1.72. Still for that read-out and setting: the figure for FWNFKQMWDSKKIGLRQHHCEKCG [R21E] is 2.02; for FWNFKQMWDSKKIGLRQHHCHKCG [R21H] it is 2.66; for FWNFKQMWDSKKIGLRQHHCIKCG [R21I] it is 1.29. With FWNFKQMWDSKKIGLRQHHCLKCG [R21L], the protein stability index was determined as 1.1.

For FWNFKQMWDSKKIGLRQHHCPKCG [R21P], the protein stability index was 1.53. In the case of FWNFKQMWDSKKIGLRQHHCVKCG [R21V], the protein stability index was found to be 1.21. For FWNFKQMWDSKKIGLRQHHCAKCG [R21A], the protein stability index stood at 2.34.

With FWNFKQMWDSKKIGLRQHHCDKCG [R21D], the protein stability index was found to be 2.04. The same measure, in the same setting: as for FWNFKQMWDSKKIGIRQHHCRKCG [L15I], the figure is 1.92; as for FWNFKQMWDSKKIGKRQHHCRKCG [L15K], 2.32; as for FWNFKQMWDSKKIGMRQHHCRKCG [L15M], 1.97. FWNFKQMWDSKKIGGRQHHCRKCG [L15G]: the protein stability index turned out to be 2.14. On the same count and under the same terms, the figure for FWNFKQMWDSKKIGFRQHHCRKCG [L15F] is 1.81. Turning to FWNFKQMWDSKKIGVRQHHCRKCG [L15V], the protein stability index came to 2.34. With FWNFKQMWDSKKIGSRQHHCRKCG [L15S], the protein stability index turned out to be 2.25. As for FWNFKQMWDSKKIGQRQHHCRKCG [L15Q], the protein stability index was found to be 1.95. For the variant FWNFKQMWDSKKIGWRQHHCRKCG [L15W], the protein stability index is 1.42.

FWNFKQMWDSKKIGPRQHHCRKCG [L15P]: the protein stability index was determined as 2.68. Turning to FWNFKQMWDSKKIGYRQHHCRKCG [L15Y], the protein stability index was found to be 1.93. Consider FWNFKQMWDSKKIGRRQHHCRKCG [L15R], for which the protein stability index came to 2.61.

As for FWNFKQMWDSKKIGTRQHHCRKCG [L15T], the protein stability index was 2.01.

As to FWNFKQMWDSKKIGHRQHHCRKCG [L15H], the protein stability index was 1.71.

For FWNFKQMWDSKKIGNRQHHCRKCG [L15N], the protein stability index was 2.11. As for FWNFKQMWDSKKIGLRQHFCRKCG [H19F], the protein stability index is 1.79.

As for FWNFKQMWDSKKIGLRQHECRKCG [H19E], the protein stability index was 1.62. The same measure, in the same setting: as for FWNFKQMWDSKKIGLRQHPCRKCG [H19P], the figure is 2.17. As for FWNFKQMWDSKKIGLRQHKCRKCG [H19K], the protein stability index stood at 2.39. Turning to FWNFKQMWDSKKIGLRQHGCRKCG [H19G], the protein stability index stood at 2.38. Turning to FWNFKQMWDSKKIGLRQHDCRKCG [H19D], the protein stability index was found to be 2.11. As for FWNFKQMWDSKKIGLRQHACRKCG [H19A], the protein stability index stood at 1.86. Same read-out and setting: the figure for FWNFKQMWDSKKIGLRQHCCRKCG [H19C] is 1.73.

On to FWNFKQMWDSKKIGLRQHQCRKCG [H19Q], for which the protein stability index came out at 1.87. On the same count and under the same terms, the figure for FWNFKQMWDSKKIGLRQHICRKCG [H19I] is 2.22; for FWNFKQMWDSKKIGLRQHWCRKCG [H19W] it is 1.69. FWNFKQMWDSKKIGLRQHSCRKCG [H19S]: the protein stability index stood at 2.02. In the case of FWNFKQMWDSKKIGLRQHTCRKCG [H19T], the protein stability index is 1.72. With FWNFKQMWDSKKIGLRQHRCRKCG [H19R], the protein stability index was 2.39.
